Laboratory results taken from article PMC12827253 (2025).

Assays:
human recombinant RIPK3 [1] = biological target: T1, human recombinant RIPK3 (human, UniProt Q9Y572 1-518); test: BLI; fit at 12 nM GADD45β
human recombinant RIPK3 [2] = biological target: T1, human recombinant RIPK3; test: BLI; fit at 6 nM GADD45β
human recombinant RIPK3 [3] = biological target: T1, human recombinant RIPK3; test: BLI; fit at 100 nM GADD45β
human recombinant RIPK3 [4] = biological target: T1, human recombinant RIPK3; test: BLI; fit at 50 nM GADD45β
human recombinant RIPK3 [5] = biological target: T1, human recombinant RIPK3; test: BLI; fit at 25 nM GADD45β
human recombinant RIPK3 [6] = biological target: T1, human recombinant RIPK3; test: BLI; fit at 3 nM GADD45β
human recombinant RIPK3 [7] = biological target: T1, human recombinant RIPK3; test: BLI; average

T1 sequence (Q9Y572 whole entry): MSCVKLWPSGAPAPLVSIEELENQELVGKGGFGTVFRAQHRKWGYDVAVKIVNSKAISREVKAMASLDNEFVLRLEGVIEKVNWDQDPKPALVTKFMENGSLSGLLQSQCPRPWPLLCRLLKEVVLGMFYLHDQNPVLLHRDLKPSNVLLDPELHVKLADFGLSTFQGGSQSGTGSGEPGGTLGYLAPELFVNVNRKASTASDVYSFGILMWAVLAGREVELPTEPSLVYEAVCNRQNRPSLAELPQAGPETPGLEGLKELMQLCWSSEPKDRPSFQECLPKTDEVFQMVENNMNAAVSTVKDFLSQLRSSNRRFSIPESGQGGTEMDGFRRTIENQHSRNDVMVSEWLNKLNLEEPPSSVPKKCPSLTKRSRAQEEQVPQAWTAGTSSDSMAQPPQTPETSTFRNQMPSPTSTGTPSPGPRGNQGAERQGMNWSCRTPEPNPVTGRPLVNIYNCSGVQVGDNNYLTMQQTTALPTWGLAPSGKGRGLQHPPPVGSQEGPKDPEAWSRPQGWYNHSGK

Kd (human recombinant RIPK3 [1]): 1.36 nM
Kd (human recombinant RIPK3 [2]): 0.61 nM
Kd (human recombinant RIPK3 [3]): 3.49 nM
Kd (human recombinant RIPK3 [4]): 2.85 nM
Kd (human recombinant RIPK3 [5]): 1.96 nM
Kd (human recombinant RIPK3 [6]): 0.111 nM
koff (human recombinant RIPK3 [7]): 0.000546 s⁻¹
B1: recombinant human GADD45β (natural protein)
chain: MTLEELVACDNAAQKMQTVTAAVEELLVAAQRQDRLTVGVYESAKLMNVDPDSVVLCLLAIDEEEEDDIALQIHFTLIQSFCCDNDINIVRVSGMQRLAQLLGEPAETQGTTEARDLHCLLVTNPHTDAWKSHGLVEVASYCEESRGNNQWVPYISLQER
